Sequences and labels used below:
B1: NP_116010.1 (parent)
chain: HSLRAVSTDPPHHDHHDEFCLMP

In series [1] the parent is B1. As to the kind of experiment: protein stability index of a GFP-peptide fusion (GPS, HEK-293T) (PSI 1-6); higher = more stable. Conditions: c terminus: native.
Series [2] covers variants of B1. The description is as above. The settings on record: c terminus: native. The source holds these as a separate data set.

On to HSLIAVSTDPPHHDHHDEFCLMP [R4I], for which the figures for the protein stability index in series [1] and in series [2] were 2.92 and 1.55, respectively.

Turning to HSLTAVSTDPPHHDHHDEFCLMP [R4T], the protein stability index in series [1] amounted to 3.08; in series [2], 2.84.

Consider HSLVAVSTDPPHHDHHDEFCLMP [R4V], for which the protein stability index in series [1] worked out at 2.23; in series [2], 1.96. HSLEAVSTDPPHHDHHDEFCLMP [R4E]: the protein stability index in series [1] came out at 3.58; in series [2], 2.41. HSLMAVSTDPPHHDHHDEFCLMP [R4M]: the protein stability index in series [1] worked out at 2.45; in series [2], 2. Consider HSLKAVSTDPPHHDHHDEFCLMP [R4K], for which the protein stability index in series [1] amounted to 2.58; in series [2] it was 1.8. With HSLFAVSTDPPHHDHHDEFCLMP [R4F], the protein stability index in series [1] turned out to be 2.11; in series [2], 2.22. The like results for HSLGAVSTDPPHHDHHDEFCLMP [R4G] were, in that order, 3.32 and 2.64. The like results for HSLLAVSTDPPHHDHHDEFCLMP [R4L] were, in that order, 2.73 and 3.03. Regarding HSLQAVSTDPPHHDHHDEFCLMP [R4Q], the protein stability index in series [1] is 3.06; in series [2], 1.83. In the same order, the values of HSLWAVSTDPPHHDHHDEFCLMP [R4W] are 2.38 and 2.9. The like results for HSLAAVSTDPPHHDHHDEFCLMP [R4A] were, in that order, 3.09 and 1.82. The like results for HSLCAVSTDPPHHDHHDEFCLMP [R4C] were, in that order, 2.69 and 3.21. Consider HSLRAVDTDPPHHDHHDEFCLMP [S7D], for which the protein stability index turned out to be 2.81 in series [1] and 2.26 in series [2]. In the case of HSLRAVFTDPPHHDHHDEFCLMP [S7F], the protein stability index in series [1] worked out at 2.23. The same measure, in the same setting: next, HSLRAVHTDPPHHDHHDEFCLMP [S7H]: 2.53.

As to HSLRAVGTDPPHHDHHDEFCLMP [S7G], the protein stability index worked out at 2.58 in series [1] and 2.83 in series [2].

As for HSLRAVCTDPPHHDHHDEFCLMP [S7C], the protein stability index worked out at 2.48 in series [1] and 2.82 in series [2].

MSLRAVSTDPPHHDHHDEFCLMP [H1M]: the protein stability index was 2.8 in series [1] and 1.72 in series [2]. The like results for ESLRAVSTDPPHHDHHDEFCLMP [H1E] were, in that order, 3.5 and 2.41. The like results for RSLRAVSTDPPHHDHHDEFCLMP [H1R] were, in that order, 2.68 and 2.35. Turning to ISLRAVSTDPPHHDHHDEFCLMP [H1I], the protein stability index turned out to be 2.75 in series [1] and 1.82 in series [2]. For the variant NSLRAVSTDPPHHDHHDEFCLMP [H1N], the protein stability index in series [1] was 3.37; in series [2], 1.64. As to KSLRAVSTDPPHHDHHDEFCLMP [H1K], the protein stability index in series [1] turned out to be 3.29; in series [2], 2.43. In the same order, the values of CSLRAVSTDPPHHDHHDEFCLMP [H1C] are 2.68 and 2.48. Regarding FSLRAVSTDPPHHDHHDEFCLMP [H1F], in series [1], the protein stability index came to 2.24. For LSLRAVSTDPPHHDHHDEFCLMP [H1L], the protein stability index in series [1] is 3.11; in series [2] it was 1.68. For DSLRAVSTDPPHHDHHDEFCLMP [H1D], the protein stability index was determined as 3.42 in series [1] and 3.31 in series [2]. The like results for PSLRAVSTDPPHHDHHDEFCLMP [H1P] were, in that order, 3.39 and 2.21. In the same order, the values of SSLRAVSTDPPHHDHHDEFCLMP [H1S] are 3.04 and 2.26. In the same order, the values of TSLRAVSTDPPHHDHHDEFCLMP [H1T] are 3.55 and 2.54.

As for WSLRAVSTDPPHHDHHDEFCLMP [H1W], the protein stability index in series [1] was 2.18; in series [2] it was 1.93. The like results for GSLRAVSTDPPHHDHHDEFCLMP [H1G] were, in that order, 3.41 and 2.65. The like results for QSLRAVSTDPPHHDHHDEFCLMP [H1Q] were, in that order, 3.06 and 1.9. For the variant YSLRAVSTDPPHHDHHDEFCLMP [H1Y], the protein stability index in series [1] came out at 2.63; in series [2], 1.19. Consider ASLRAVSTDPPHHDHHDEFCLMP [H1A], for which the protein stability index in series [1] was found to be 3.26; in series [2], 1.49. HSGRAVSTDPPHHDHHDEFCLMP [L3G]: the protein stability index in series [1] amounted to 3.07; in series [2], 2.46. In the same order, the values of HSQRAVSTDPPHHDHHDEFCLMP [L3Q] are 2.78 and 2.52. As for HSRRAVSTDPPHHDHHDEFCLMP [L3R], the protein stability index in series [1] amounted to 2.82; in series [2] it was 2.21. The like results for HSKRAVSTDPPHHDHHDEFCLMP [L3K] were, in that order, 2.76 and 2.04. The like results for HSIRAVSTDPPHHDHHDEFCLMP [L3I] were, in that order, 2.39 and 3.18. With HSTRAVSTDPPHHDHHDEFCLMP [L3T], the protein stability index in series [1] came to 2.22; in series [2], 2.75. In the same order, the values of HSDRAVSTDPPHHDHHDEFCLMP [L3D] are 2.5 and 2.14. The like results for HSARAVSTDPPHHDHHDEFCLMP [L3A] were, in that order, 2.35 and 2.02. The like results for HSCRAVSTDPPHHDHHDEFCLMP [L3C] were, in that order, 2.38 and 1.7. As to HSYRAVSTDPPHHDHHDEFCLMP [L3Y], the protein stability index in series [1] stood at 2.38. As for HSMRAVSTDPPHHDHHDEFCLMP [L3M], the protein stability index came to 2.43 in series [1] and 3.08 in series [2]. In the same order, the values of HSVRAVSTDPPHHDHHDEFCLMP [L3V] are 2.75 and 1.7.

HSSRAVSTDPPHHDHHDEFCLMP [L3S]: the protein stability index stood at 3.2 in series [1] and 2.59 in series [2]. The like results for HSNRAVSTDPPHHDHHDEFCLMP [L3N] were, in that order, 3.45 and 2.59.

These data come from the supplement of paper PMC10567573.
